Patent publication US20190367606A1 (CENTRE FOR DRUG RESEARCH AND DEVELOPMENT, published 2019)

T1: human podocalyxin (human, UniProt O00592 23-558)
T1 construct: also called hPodo; hPodocalyxin
T1 sequence: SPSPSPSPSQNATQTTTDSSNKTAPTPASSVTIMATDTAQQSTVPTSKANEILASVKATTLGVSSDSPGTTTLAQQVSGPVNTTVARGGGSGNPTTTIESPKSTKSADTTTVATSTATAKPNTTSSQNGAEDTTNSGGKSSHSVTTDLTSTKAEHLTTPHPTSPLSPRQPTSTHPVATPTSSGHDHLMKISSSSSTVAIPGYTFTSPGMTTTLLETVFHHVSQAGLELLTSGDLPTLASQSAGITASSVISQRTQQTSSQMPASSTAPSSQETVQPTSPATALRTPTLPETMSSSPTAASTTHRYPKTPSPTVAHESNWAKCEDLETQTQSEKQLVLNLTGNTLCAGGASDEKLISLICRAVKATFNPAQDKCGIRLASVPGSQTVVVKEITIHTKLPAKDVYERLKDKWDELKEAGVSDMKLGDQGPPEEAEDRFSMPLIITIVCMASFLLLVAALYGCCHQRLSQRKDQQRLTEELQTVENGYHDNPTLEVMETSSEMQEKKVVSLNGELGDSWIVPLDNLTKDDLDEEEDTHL


Key:
human podocalyxin [1] = biological target: T1, human podocalyxin; assay: FACS, isotype control, hPodo/MDA (MDA-MB-231 cells transfected with human Podocalyxin cDNA)
human podocalyxin [2] = biological target: T1, human podocalyxin; assay: cross competition FACS, MDA-MB-231 cells; row antibody unlabelled 25 ug/mL first; competitor (detected): B-3G2.2 5 ug/mL
human podocalyxin [3] = biological target: T1, human podocalyxin; assay: cross competition FACS, MDA-MB-231 cells; row antibody unlabelled 25 ug/mL first; competitor (detected): B-mlgG1 5 ug/mL (control)
human podocalyxin [4] = biological target: T1, human podocalyxin; assay: cross competition FACS, MDA-MB-231 cells; row antibody unlabelled 25 ug/mL first; competitor (detected): biotinylated Rb/Hu Podo83 5 ug/mL
human podocalyxin [5] = biological target: T1, human podocalyxin; assay: cross competition FACS, MDA-MB-231 cells; row antibody unlabelled 25 ug/mL first; competitor (detected): B-Ova 12 5 ug/mL (control)
human podocalyxin [6] = biological target: T1, human podocalyxin; assay: flow cytometry, supernatant 1:125, MDA-MB-231 cells
Protocol: (§1) The following antibodies were transiently transfected in 293HEK cells, transfected cells were incubated for 96 hours, antibody containing supernatant was then serially titrated in FACS sample buffer. The following supernatants were used as test samples:
(§2) MDA transient transfectants were established as essentially described above in Example 1. MDA transient transfectants and MDA-MB-231 cells were seeded in 96-well v bottom plates at 75,000 cells/well. Cells were pelleted by centrifugation at 400 g for 3 min. Supernatant was removed. The cell pellets were resuspended in 20 μl of the antibody or control supernatants. The plate was incubated on ice for 1 hour.
(§3) The cells were washed by adding 200 μl FACS buffer to dilute unbound antibody. The plate was centrifuged at 400 g for 3 min to pellet cells. The supernatant was removed and repeated. The cell pellets were resuspended in 25 μl of either goat anti-Hu IgG Fc-Alexa647, goat anti-Mouse IgG Fc-Alexa647, or goat anti-rabbit IgG0Fc-A647 (2 μg/ml) and 7A.A.D (2.5 μg/ml). The plates were incubated on ice for 0.5 hours. The wash procedure was again repeated 2×. The cell pellets were finally resuspended in 75 μl FACS buffer and read on the HTFC™ Screening System (IntelliCyt Corporation) (3 sec sip, 1.5 up time) and analyzed on the HyperView® software (IntelliCyt Corporation).

human podocalyxin [7] = biological target: T1, human podocalyxin; assay: flow cytometry, supernatant Neat, hPodo/MDA-MB-231 transient transfectants
Protocol: as §1, §2, §3

human podocalyxin [8] = biological target: T1, human podocalyxin; assay: flow cytometry titration on 293-6E cells (endogenous podocalyxin), 24 hours at 4 C
Protocol: (§4) The affinities of huPodo 83 1:1 and huPodo 83 2:1 antibodies were determined against endogenously expressed podocalyxin on 293 HEK cells. 293-6E cells were seeded in 96-well v bottom plates at 100,000 cells/well. The cells were pelleted at 400 g for 3 min and the supernatant was discarded. The cells were placed on ice and antibody 1:3 titrations were prepared using ice cold medium. The cells were resuspended in the prepared antibody titrations at 25 μl/well and incubated at 4° C. for either 24 or 48 hours. 200 μl 1% FBS/PGS (FACS buffer) was added to each well. The cells were pelleted at 400 g for 3 min and supernatant removed. The wash was repeated 2 more times. The cells were resuspended in goat anti-human IgGFc-A647 (2 μg/ml)+2.5 μg/ml 7AAD and incubated on ice for 30 min. The cells were washed as above and resuspended in 50 μl FACS buffer. The cells were analyzed by flow cytometry using the HTFC™ Screening System (IntelliCyt Corporation) (3 sec sip, 1.5 sec up) and the C6 cytometer (Becton Dickenson).

human podocalyxin [9] = biological target: T1, human podocalyxin; assay: flow cytometry, supernatant Neat, MDA-MB-231 cells
Protocol: as §1, §2, §3

human podocalyxin [10] = biological target: T1, human podocalyxin; assay: flow cytometry, supernatant 2:15 (so in the source), MDA-MB-231 cells
Protocol: as §1, §2, §3

human podocalyxin [11] = biological target: T1, human podocalyxin; assay: flow cytometry titration on 293-6E cells (endogenous podocalyxin), 48 hours at 4 C
Protocol: as §4

human podocalyxin [12] = biological target: T1, human podocalyxin; assay: flow cytometry, supernatant 2:15 (so in the source), hPodo/MDA-MB-231 transient transfectants
Protocol: as §1, §2, §3

human podocalyxin [13] = biological target: T1, human podocalyxin; assay: flow cytometry, supernatant 1:5, MDA-MB-231 cells
Protocol: as §1, §2, §3

human podocalyxin [14] = biological target: T1, human podocalyxin; assay: kinetic exclusion assay (KinExA 3200), MDA-MB-231 cells
Protocol: The concentration dependence of free anti-podocalyxin antibody as a function of MDA-MB231 cell number was determined using a KinExA 3200 instrument (Sapidyne Instruments). Briefly, MDA-MB-231 cells, which express endogenous podocalyxin, were titrated 1:2 from 10×10⁶ cells/mL down 12 steps, and incubated with a fixed concentration of anti-podocalyxin antibodies. MDA-MB231 cells and cell bound antibodies were then isolated by centrifugation. Supernatant containing free, unbound antibody was then transferred to a new tube. The supernatant containing free unbound antibody was passed over the column containing PMMA beads coated with a goat anti-IgG-Fc capture antibody. The amount of free antibody captured on the PMMA beads was then measured using a goat anti-IgG-Fc-A647. This process was repeated for every cell concentration. For each sample assayed a new column of PMMA beads with the goat anti-IgG-Fc capture antibody was packed. The concentration of free antibody over the entire 12 step dilution series was then used to determine the antibody Kd's using the standard Kd template in the KineExA Pro Software (Sapidyne Instruments).

human podocalyxin [15] = biological target: T1, human podocalyxin; assay: flow cytometry, supernatant 1:125, hPodo/MDA-MB-231 transient transfectants
Protocol: as §1, §2, §3

human podocalyxin [16] = biological target: T1, human podocalyxin; assay: flow cytometry, supernatant 1:5, hPodo/MDA-MB-231 transient transfectants
Protocol: as §1, §2, §3

flow cytometry fluorescence (name not given) (human podocalyxin [6]) | flow cytometry fluorescence (name not given) (human podocalyxin [7]) | flow cytometry fluorescence (name not given) (human podocalyxin [9]) | flow cytometry fluorescence (name not given) (human podocalyxin [10]) | flow cytometry fluorescence (name not given) (human podocalyxin [12]) | flow cytometry fluorescence (name not given) (human podocalyxin [13]) | flow cytometry fluorescence (name not given) (human podocalyxin [15]) | flow cytometry fluorescence (name not given) (human podocalyxin [16]) | Molecule | other results
 |  |  |  |  |  |  |  | hlgG1 (antibody) | FACS signal (name not given) (human podocalyxin [1]): 544
 |  |  |  |  |  |  |  | MAB1658 (R&D Systems) (antibody) | FACS signal of the biotinylated antibody named under assay (human podocalyxin [2]): 26900; FACS signal of the biotinylated antibody named under assay (human podocalyxin [3]): 431; FACS signal of the biotinylated antibody named under assay (human podocalyxin [4]): 127000; FACS signal of the biotinylated antibody named under assay (human podocalyxin [5]): 476
 |  |  |  |  |  |  |  | 3D3 (Santa Cruz Biotechnology sc23904) (antibody) | FACS signal of the biotinylated antibody named under assay (human podocalyxin [2]): 26400; FACS signal of the biotinylated antibody named under assay (human podocalyxin [3]): 419; FACS signal of the biotinylated antibody named under assay (human podocalyxin [4]): 135000; FACS signal of the biotinylated antibody named under assay (human podocalyxin [5]): 450
 |  |  |  |  |  |  |  | hlgG2 (antibody) | FACS signal (name not given) (human podocalyxin [1]): 533
39400 | 124000 | 125000 | 91500 | 157000 | 112000 | 61600 | 128000 | huPodo 83 1:1 (humanized anti-podocalyxin antibody 83, version 1) (antibody, V domains shown, Cloned into pTT5 plasmids with human IgG heavy chain and human Ig kappa constant regions) VH: EVQLVESGGGLVQPGGSLRLSCAASGIDLSSYAMGWVRQAPGKGLEWVSFIYASGSIFYASWAKGRFTISRDNSKNTLYLQMNSLRAEDTAVYYCARAGYYFGGNYDLNLWGQGTLVTVSS VL: DIQMTQSPSSLSASVGDRVTITCQASQSISNYLAWYQQKPGKVPKLLIYRASTLASGVPSRFSGSGSGTDFTLTISSLQPEDVATYYCQQGYVSNNLDNIFGGGTEVVVK | IC50 (human podocalyxin [8]): 0.0331 µg/mL; IC50 (human podocalyxin [11]): 0.0355 µg/mL; Kd (human podocalyxin [14]): 0.26 nM
47700 | 137000 | 130000 | 94800 | 76400 | 115000 | 74500 | 124000 | Rb VH, Vk 1:1 (Podo 83 rabbit VH, human CH1-CH3, human Ck, and humanized Vk) (antibody, V domains shown, Human CH1-CH3 and human Ck) VH: QSLAESGGRLVTPGTPLTLTCTASGIDLSSYAMGWVRQAPGKGLEYIGFIYASGSIFYASWAKGRFTISKTSSTTVDLKMTSLTTEDTATYFCARAGYYFGGNYDLNLWGQGTLVTVSS VL: DIQMTQSPSSLSASVGDRVTITCQASQSISNYLAWYQQKPGKVPKLLIYRASTLASGVPSRFSGSGSGTDFTLTISSLQPEDVATYYCQQGYVSNNLDNIFGGGTEVVVK | 
22300 | 139000 | 123000 | 67200 | 79400 | 105000 | 37700 | 108000 | huPodo 83 2:1 (humanized anti-podocalyxin antibody 83, version 2) (antibody, V domains shown, Cloned into pTT5 plasmids with human IgG heavy chain and human Ig kappa constant regions) VH: EVQLVESGGGLVQPGGSLRLSCAASGIDLSSYAMGWVRQAPGKGLEWVSFIYASGSIFYASWAKGRFTISRDNSNTLYLQMNSLRAEDTAVYYCARAGYYFGGNYDLNLWGQGTLVTVSS VL: DIQMTQSPSSLSASVGDRVTITCQASQSISNYLAWYQQKPGKVPKLLIYRASTLASGVPSRFSGSGSGTDFTLTISSLQPEDVATYYCQQGYVSNNLDNIFGGGTEVVVK | IC50 (human podocalyxin [8]): 0.0519 µg/mL; IC50 (human podocalyxin [11]): 0.052 µg/mL
 |  |  |  |  |  |  |  | mouse anti-podocalyxin antibody 3G2 (Ab-2) (antibody, V domains shown, also called 3G2.2; Podo-3G2.2) VH: EVQLQQSGPELVKPGASVKMSCKASGYTFTSYVMHWVKQKPGQGLEWIGYIHPYNDGTNYNEKFKGKATLTSDKSSNTAYMELSSLTSEDSAVYYCARSWDWYFDVWGAGTTVTVSS VL: QIVLTQSPAIMSASPGEKVTMTCSANSNVRYIHWHQQKSGTSPKRWIYDTSKLSSGVPARFSGSGSGTSYSLTISNMEAEDAATYYCQQWISNPLTFGAGTKLELK | Kd (human podocalyxin [14]): 3.34 nM
15500 | 90800 | 179000 | 53700 | 89700 | 129000 | 24100 | 139000 | Rabbit Podo 83 (Parental rabbit antibody) (antibody, V domains shown, Rabbit constant regions; also called Rb Podo 83 (Rb Constant Region); rabbit Podo-83 (Ab-1)) VH: QSLAESGGRLVTPGTPLTLTCTASGIDLSSYAMGWVRQAPGKGLEYIGFIYASGSIFYASWAKGRFTISKTSSTTVDLKMTSLTTEDTATYFCARAGYYFGGNYDLNLWGQGTLVTVSS VL: DIVLTQTPASVEVAVGGTVTIKCQASQSISNYLAWYQRKPGQPPRLLIYRASTLASGVSSRFKGSGSGTQFTLTISGVECADAATYYCQQGYVSNNLDNIFGGGTEVVVK | 
